B1: SPOPL (parent)
chain: PDDKLTLFCEVSVVQDSVNISGHT

Protein stability index data for 94 variants are collected here from the supplement of paper PMC10567573.
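Further: lentivirally expressed fusions sorted by FACS into six bins by GFP to DsRed ratio, PSI derived from sequencing read proportions per bin multiplied by bin number.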

The variants in this data set derive from B1. The data set is described as follows: protein stability index of a GFP-peptide fusion (GPS, HEK-293T) (PSI 1-6); higher = more stable. Conditions: c terminus: a fixed tail appended.
As for PDDKLTLFCEVSVVQDSVNQSGHT [I20Q], the protein stability index is 3.49. Regarding PDDKLTLFCEVSVVQDSVNYSGHT [I20Y], the protein stability index was determined as 2.18. As for PDDKLTLFCEVSVVQDSVNVSGHT [I20V], the protein stability index was 2.55. As for PDDKLTLFCEVSVVQDSVNTSGHT [I20T], the figure is 3.2. On to PDDKLTLFCEVSVVQDSVNASGHT [I20A], for which the protein stability index amounted to 2.74. For the variant PDDKLTLFCEVSVVQDSVNDSGHT [I20D], the protein stability index was determined as 3.77.

On to PDDKLTLFCEVSVVQDSVNMSGHT [I20M], for which the protein stability index was determined as 1.78. Next, PDDKLTLFCEVSVVQDSVNFSGHT [I20F]: 1.31. For PDDKLTLFCEVSVVQDSVNISGCT [H23C], the protein stability index came to 2. As for PDDKLTLFCEVSVVQDSVNISGST [H23S], the figure is 2.18; as for PDDKLTLFCEVSVVQDSVNISGDT [H23D], 3.06.

Turning to PDDKLTLFCEVSVVQDSVNISGGT [H23G], the protein stability index came out at 2.01. As to PDDKLTLFCEVSVVQDSVNISGKT [H23K], the protein stability index stood at 2.21.

As for PDDKLTLFCEVSVVQDSVNISGVT [H23V], the protein stability index came to 2.03. As to PDDKLTLFCEVSVVQDSVNISGWT [H23W], the protein stability index was determined as 5.02. As for PDDKLTLFCEVSVVQDSVNISGQT [H23Q], the figure is 2.3; as for PDDKLTLFCEVSVVQDSVNISGPT [H23P], 2.26.

With PDDKLTLFCEVSVVQDSVNISGLT [H23L], the protein stability index was determined as 1.69. On to PDDKLTLFCEVSVVQDSVNISGAT [H23A], for which the protein stability index came to 2.

In the case of PDDKLTLFCEVSVVQDSVNISGNT [H23N], the protein stability index worked out at 2.6. As for PDDKLTLFCEVSVVQDSVNISGRT [H23R], the figure is 2.71. With PDDKLTLFCEVSVVQDSVNISGIT [H23I], the protein stability index was found to be 2.41. Next, PDDKLTLFCEVSVVQDSVNISGTT [H23T]: 2.44. As for PDDKLTLFCEVSVVQDSVNISGET [H23E], the figure is 3.21; as for PDDKLTLFCEVSVVQDSVNISGHI [T24I], 2.27.

PDDKLTLFCEVSVVQDSVNISGHA [T24A]: the protein stability index was 1.54.

On to PDDKLTLFCEVSVVQDSVNISGHM [T24M], for which the protein stability index turned out to be 2.39. Next, PDDKLTLFCEVSVVQDSVNISGHF [T24F]: 1.74. As for PDDKLTLFCEVSVVQDSVNISGHN [T24N], the figure is 2.97. In the case of PDDKLTLFCEVSVVQDSVNISGHG [T24G], the protein stability index came to 1.51. As for PDDKLTLFCEVSVVQDSVNISGHH [T24H], the figure is 2.4. With PDDKLTLFCEVSVVQDSVNISGHE [T24E], the protein stability index was determined as 3.45. Next, PDDKLTLFCEVSVVQDSVNISGHQ [T24Q]: 2.06; PDDKLTLFCEVSVVQDSVNISGHD [T24D]: 2.46. In the case of PDDKLTLFCEVSVVQDSVNISGHW [T24W], the protein stability index turned out to be 3.64. PDDKLTLFCEVSVVQDSVNISGHK [T24K]: the protein stability index turned out to be 3.16. For PDDKLTLFCEVSVVQDSVNISGHS [T24S], the protein stability index was found to be 2.38. Regarding PDDKLTLFCEVSVVQDSVNISGHP [T24P], the protein stability index is 3.77. Next, PDDKLTLFCEVSVVQDKVNISGHT [S17K]: 3.12.

Take PDDKLTLFCEVSVVQDDVNISGHT [S17D]: the protein stability index amounted to 3.11. Take PDDKLTLFCEVSVVQDPVNISGHT [S17P]: the protein stability index stood at 2.85.

Consider PDDKLTLFCEVSVVQDFVNISGHT [S17F], for which the protein stability index came out at 4.06.

On to PDDKLTLFCEVSVVQDEVNISGHT [S17E], for which the protein stability index came out at 2.99.

With PDDKLTLFCEVSVVQDVVNISGHT [S17V], the protein stability index was 1.03. As for PDDKLTLFCEVSVVQDHVNISGHT [S17H], the figure is 1.38; as for PDDKLTLFCEVSVVQDCVNISGHT [S17C], 2.61. Next, PDDKLTLFCEVSVVQDTVNISGHT [S17T]: 1.85; PDDKLTLFCEVSVVQDYVNISGHT [S17Y]: 2.99; PDDKLTLFCEVSVVQDAVNISGHT [S17A]: 2.29. Next, PDDKLTLFCEVSVVQDRVNISGHT [S17R]: 1.73.

For PDDKLTLFCEVSVVQDMVNISGHT [S17M], the protein stability index came out at 3.15.

For PDDKLTLFCEVSVVQDLVNISGHT [S17L], the protein stability index worked out at 3.52.

Regarding PDDKLTLFCEVSVVQDQVNISGHT [S17Q], the protein stability index came out at 2.07. Next, PDDKLTLFCEVSVVQDNVNISGHT [S17N]: 1.84. Next, PDDKLTLFCEVSVVQDGVNISGHT [S17G]: 2. As for PDDKLTLFCEVSVVQDSVNIPGHT [S21P], the figure is 2.29; as for PDDKLTLFCEVSVVQDSVNITGHT [S21T], 3.16. As to PDDKLTLFCEVSVVQDSVNIMGHT [S21M], the protein stability index was found to be 2.48. In the case of PDDKLTLFCEVSVVQDSVNIIGHT [S21I], the protein stability index was 3.25.

Take PDDKLTLFCEVSVVQDSVNINGHT [S21N]: the protein stability index worked out at 2.2.

PDDKLTLFCEVSVVQDSVNIHGHT [S21H]: the protein stability index was determined as 1.61. As for PDDKLTLFCEVSVVQDSVNIEGHT [S21E], the figure is 2.44; as for PDDKLTLFCEVSVVQDSVNICGHT [S21C], 1.5; as for PDDKLTLFCEVSVVQDSVNIGGHT [S21G], 2.74. Next, PDDKLTLFCEVSVVQDSVNIRGHT [S21R]: 2.47; PDDKLTLFCEVSVVQDSVNIYGHT [S21Y]: 1.85. For PDDKLTLFCEVSVVQDSVNIDGHT [S21D], the protein stability index stood at 3.2.

In the case of PDDKLTLFCEVSVVQDSVNILGHT [S21L], the protein stability index worked out at 1.68.

Regarding PDDKLTLFCEVSVVQDSVNIAGHT [S21A], the protein stability index amounted to 2.29. As for PDDKLTLFCEVSVVQDSVNIQGHT [S21Q], the figure is 3.3; as for PDDKLTLFCEVSVVQDSVNISCHT [G22C], 2.59; as for PDDKLTLFCEVSVVQDSVNISEHT [G22E], 3.28. As to PDDKLTLFCEVSVVQDSVNISDHT [G22D], the protein stability index was 2.87.

As to PDDKLTLFCEVSVVQDSVNISHHT [G22H], the protein stability index turned out to be 1.66. For PDDKLTLFCEVSVVQDSVNISTHT [G22T], the protein stability index is 3.74. With PDDKLTLFCEVSVVQDSVNISQHT [G22Q], the protein stability index is 2.97. For PDDKLTLFCEVSVVQDSVNISPHT [G22P], the protein stability index is 2.07.

For the variant PDDKLTLFCEVSVVQDSVNISNHT [G22N], the protein stability index turned out to be 1.98. Next, PDDKLTLFCEVSVVQDSVNISKHT [G22K]: 2.1; PDDKLTLFCEVSVVQDSVNISSHT [G22S]: 2.05; PDDKLTLFCEVSVVQDSVNISFHT [G22F]: 3.28. Next, PDDKLTLFCEVSVVQDSVNISAHT [G22A]: 1.08. In the case of PDDKLTLFCEVSVVQDSVPISGHT [N19P], the protein stability index was determined as 2.29.

PDDKLTLFCEVSVVQDSVIISGHT [N19I]: the protein stability index turned out to be 1.39.

For PDDKLTLFCEVSVVQDSVDISGHT [N19D], the protein stability index turned out to be 2.41. Next, PDDKLTLFCEVSVVQDSVRISGHT [N19R]: 1.2; PDDKLTLFCEVSVVQDSVQISGHT [N19Q]: 1.39; PDDKLTLFCEVSVVQDSVTISGHT [N19T]: 1.35. Next, PDDKLTLFCEVSVVQDSVAISGHT [N19A]: 2.53; PDDKLTLFCEVSVVQDSVVISGHT [N19V]: 2.65; PDDKLTLFCEVSVVQDSVCISGHT [N19C]: 1.05. Regarding PDDKLTLFCEVSVVQDSVKISGHT [N19K], the protein stability index came out at 1.92. Turning to PDDKLTLFCEVSVVQDSVGISGHT [N19G], the protein stability index was determined as 1.74.

As to PDDKLTLFCEVSVVQDSVSISGHT [N19S], the protein stability index is 3.03.
